{
  "source": "patent US6143719A",
  "about": "“Bradykinin analogs as selective thrombin inhibitors” (The Regents of the University of Michigan, priority 1996, dated 2000)",
  "key": {"Human platelets in PRP": {"test_system": "Human platelets in PRP", "test": "γ-thrombin-induced aggregation of human platelets in PRP in vitro", "assay_type": "cell-based", "conditions": "20 nM γ-thrombin", "procedure": "Platelet aggregation studies on the PRP were conducted on a 4-channel aggregometer (BioData-PAP-4, Bio Data Corp., Hatboro, Pa.). The degree of platelet aggregation was determined by measuring the increase in light transmission through a stirred suspension of PRP maintained at 37° C. Platelet aggregation was induced in the PRP sample by addition of 20 μM ADP and γ-thrombin according to the method of Harfenist et al., Thromb. Haemost. 53, 183 (1985). […] Like human platelets, rabbit platelets display a variable response to γ-thrombin. Each rabbit's platelets were evaluated before BK analog infusion for their threshold response to γ-thrombin. The rabbit platelets used in this experiment were responsive to 10 nM to 40 nM γ-thrombin. Simultaneous γ-thrombin-induced platelet aggregation studies were performed with 10, 20, and 40 nM γ-thrombin and 20 μM ADP.\nThe protocol for the human platelet study was identical to that for the functional study with white rabbits described above in Section III.A, with the following differences.\nBlood samples were obtained from normal human volunteers. Platelet counts were measured with a Coulter counter, Model 2F (Coulter, Hialeah, Fla.,) and adjusted to a platelet count of 200,000 platelets/μl. Each individual's platelets at baseline were measured for their threshold response to γ-thrombin. Typical threshold levels were between 10 nM to 40 nM."}, "thrombin receptor": {"target": "T1, thrombin receptor (Homo sapiens, UniProt P25116)", "T1 construct": "endogenous in cells; host or cells: washed platelets from fresh blood", "T1 sequence (P25116 22-425)": "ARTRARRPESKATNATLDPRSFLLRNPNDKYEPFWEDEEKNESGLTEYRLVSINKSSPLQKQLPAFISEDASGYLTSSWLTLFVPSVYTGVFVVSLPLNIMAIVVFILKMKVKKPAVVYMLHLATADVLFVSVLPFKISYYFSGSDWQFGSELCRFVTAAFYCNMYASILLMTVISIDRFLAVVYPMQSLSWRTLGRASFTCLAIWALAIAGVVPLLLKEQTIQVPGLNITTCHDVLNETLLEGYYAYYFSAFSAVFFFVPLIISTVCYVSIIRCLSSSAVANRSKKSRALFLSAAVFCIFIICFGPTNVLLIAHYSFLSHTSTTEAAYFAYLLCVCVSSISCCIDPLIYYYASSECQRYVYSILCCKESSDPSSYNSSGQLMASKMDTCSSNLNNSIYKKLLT", "test": "flow cytometry of thrombin receptor epitopes (SPAN12, ATAP138) on α-thrombin activated platelets", "assay_type": "cell-based", "conditions": "peptide 1 nM (so in the source), α-thrombin 1 nM", "procedure": "Flow cytometry studies were performed to determine whether BK analogs prevent α-thrombin from eliminating an epitope on the thrombin receptor which is lost following α-thrombin cleavage- of the receptor. SPAN12 is an antibody to the thrombin receptor on platelets, which is specific for such an epitope. Studies were also performed to determine the effect of BK analogs on an epitope recognized by monoclonal antibody ATAP 138. The antibody is directed to an epitope on the thrombin receptor which is preserved after α-thrombin cleaves the receptor (FIGS. 7A-7D).\nMonoclonal antibody SPAN12 was reared to the 12 amino acids, Asn-Ala-Thr-Leu-Asp-Pro-Arg-Ser-Phe-Leu-Leu-Arg (SEQ ID NO:2), that bridge the α-thrombin cleavage site on the thrombin receptor by the methods of Molinot et al., J. Biol. Chem. 270:ln Press, 1995. […]\nMouse IgG and an antibody to the epitope CD62 were used as controls. […] The fluorescence of bound FITC-anti-IgG to platelets was monitored on an Epics-C flow cytometer (Coulter Electronics, Hialeah, Fla.). Light scatter and fluorescence channels were set at logarithmic gain. […] Green fluorescence was observed through a 525 nm band pass filter. The relative fluorescence intensity of at least 15,000 platelets was analyzed in each sample. […]"}, "α-thrombin": {"target": "α-thrombin (Homo sapiens, UniProt P00734)", "test": "α-thrombin cleavage of thrombin receptor peptide NAT12 (HPLC)", "assay_type": "biochemical", "conditions": "peptide 1 mM", "procedure": "A further study was performed to determine whether BK analogs prevent α-thrombin from cleaving the thrombin receptor reported by Vu et al., Cell 64, 1057 (1991). A peptide, NAT12 (SEQ ID NO:2), which spans amino acids […] of the α-thrombin cleavage site on the thrombin receptor, was used to determine whether the BK analogs described herein blocked α-thrombin cleavage of the cloned receptor.\nThe cleavage study was performed according to the method of Molino et al., J. Biol. Chem. 270,11168(1995),inwhichNAT12(SEQ ID NO:2) was dissolved in a solution of 0.01 M NaH2 PO4 and 0.15 M NaCl, pH 7.4. […] Following incubation, each mixture was separated by applying the mixture to a Vyadec C-18 HPLC column in 0.1% trifluoroacetic acid and eluting the mixture with a gradient from 0% to 100% of 80% MeCN and 0.1% trifluoroacetic acid. The size of the separated products were confirmed by mass spectrometry."}},
  "note": "Ends that are not written are not given here.",
  "data": [
    {"substance": "4-MAP: four-branch multiple antigenic peptide of BK analog SEQ ID NO:20 on a lysine-β-alanine core (RPPG; also: four-branch MAP on lysine-beta-alanine core)", "values": [
      {"measurement": "effect on γ-thrombin-induced aggregation tracing", "setting": "Human platelets in PRP; 0.05 mM", "value": "abolished"}
    ]},
    {"substance": "SEQ ID NO:4: unrelated peptide having an amino acid content similar to BK analog SEQ ID NO:14 (FNQTQPERGDNNLTR)", "values": [
      {"measurement": "alteration of SPAN12 epitope by α-thrombin", "setting": "thrombin receptor", "value": "did not prevent"}
    ]},
    {"substance": "SEQ ID NO:21: non-BK analog peptide derived from domain 3 of kininogen (LNAENNA) [reference compound]", "values": [
      {"measurement": "effect on γ-thrombin-induced aggregation tracing", "setting": "Human platelets in PRP; peptide 1 mM", "value": "unable to alter"},
      {"measurement": "protection of NAT12 / thrombin receptor from α-thrombin cleavage", "setting": "α-thrombin", "value": "no protection"},
      {"measurement": "cleavage product peak 2, share of non-treated NAT12 peak area", "setting": "α-thrombin; 8 nM α-thrombin", "value": 32, "unit": "%"},
      {"measurement": "cleavage product peak 3, share of non-treated NAT12 peak area", "setting": "α-thrombin; 8 nM α-thrombin", "value": 54, "unit": "%"},
      {"measurement": "reduction of NAT12 peak 1 area after α-thrombin", "setting": "α-thrombin; 8 nM α-thrombin, one hour 37° C.", "value": 86, "unit": "%"}
    ]}
  ]
}
